{"source": "patent US11007356B2", "about": "“Ingestible device for delivery of therapeutic agent to the gastrointestinal tract” (Progenity, Inc., priority 2018, dated 2021)", "key": {"[1]": {"settings": "cited from earlier work"}, "[2]": {"test": "Dosing regimen model: required bioavailability for ingestible device (Tables 16, 17)", "settings": "for Eff Dose: approved dose x bioavailability of the approved route (Table 16); for Eff. Dose: baseline dose x bioavailability, SC (Table 17), assumed weight 70 kg"}, "blood glucose": {"system": "blood glucose", "test": "Euglycemic clamp procedure (PD) in swine (Example 3)", "type": "in vivo, Yorkshire female swine", "procedure": "(§1) Blood samples were kept on wet ice until centrifugation and separation of plasma. […] Glucose was monitored every five (5) minutes during the study by portable glucose analyzer (StatStrip (SS) hospital glucose monitoring system (Nova Biomedical, Waltham, Mass.)). At each time point, approximate 0.1 mL of blood was drawn and immediately placed on a glucose monitoring test strip, and the whole blood glucose concentration was measured by the SS in triplicate.\nA euglycemic clamp procedure (ECP) was employed to compare pharmacokinetics and pharmacodynamics of regular human Insulin (NOVOLIN® R) delivered subcutaneously (SC) in the neck versus intra-jejunally (IJ) by the jet delivery device in the small intestine. ECP was used to quantify the amount of glucose required to maintain normoglycemia after exogenous bolus of insulin. […] The animals were anesthetized for the entire ECP."}, "[3]": {"test": "Insulin PK after SC or intra-jejunal (IJ) jet delivery in swine (Example 3)", "type": "in vivo, Yorkshire female swine", "settings": "for Cmax of blood insulin, Average / Tmax of blood insulin, Average: average of animals; for Cmax of blood insulin / Tmax of blood insulin: individual animals", "procedure": "A total of 18 Yorkshire female swine in good health and weighing 60-70 kg each were included in this study. Swine were divided into two groups with 9 animals per group. […] A sham surgical laparotomy was performed. […] The jet delivery device was configured with the single nozzle in an axial orientation.\nSwine were divided into two groups with 9 animals per group. […] In all 18 animals, a laparotomy procedure was performed to expose the abdominal cavity. Animals remained under anesthesia during the entire procedure for the PK/PD study.\nFor the laparotomy in group 02, a small segment of the jejunal mucosa and serosa was exposed by midline laparotomy and the jet delivery device was inserted through antimesenteric incision.\nas §1\nThe animals were anesthetized for the entire ECP."}, "[4]": {"settings": "pig, in vivo"}, "[5]": {"settings": "IJ administration via jet delivery device, ~40 U"}, "[6]": {"settings": "SC administration group compared with IJ administration group"}}, "note": "Where “and” joins values, the source holds several entries; their conditions need not be identical. Equal values may be shown once. Read-outs that look alike come from different tables or passages of the source. Marks after values point to notes of the source that are not given here."}
{"compound": "CC[C@H](C)[C@H](NC(=O)[C@H](Cc1ccccc1)NC(=O)[C@H](CCC(=O)O)NC(=O)[C@H](CCCCNC(=O)COCCOCCNC(=O)COCCOCCNC(=O)CC[C@H](NC(=O)CCCCCCCCCCCCCCCCC(=O)O)C(=O)O)NC(=O)[C@H](C)NC(=O)[C@H](C)NC(=O)[C@H](CCC(N)=O)NC(=O)CNC(=O)[C@H](CCC(=O)O)NC(=O)[C@H](CC(C)C)NC(=O)[C@H](Cc1ccc(O)cc1)NC(=O)[C@H](CO)NC(=O)[C@H](CO)NC(=O)[C@@H](NC(=O)[C@H](CC(=O)O)NC(=O)[C@H](CO)NC(=O)[C@@H](NC(=O)[C@H](Cc1ccccc1)NC(=O)[C@@H](NC(=O)CNC(=O)[C@H](CCC(=O)O)NC(=O)C(C)(C)NC(=O)[C@@H](N)Cc1cnc[nH]1)[C@@H](C)O)[C@@H](C)O)C(C)C)C(=O)N[C@@H](C)C(=O)N[C@@H](Cc1c[nH]c2ccccc12)C(=O)N[C@@H](CC(C)C)C(=O)N[C@H](C(=O)N[C@@H](CCCNC(=N)N)C(=O)NCC(=O)N[C@@H](CCCNC(=N)N)C(=O)NCC(=O)O)C(C)C", "note": "[Semaglutide, semaglutide]", "values": [{"measurement": "Bio Avail (Approved Dosing Info)", "setting": "[1]; in vivo, sc", "value": 89, "unit": "%"}]}
{"compound": "CC[C@H](C)[C@H](NC(=O)[C@H](CCC(=O)O)NC(=O)[C@H](CO)NC(=O)[C@@H](NC(=O)[C@@H](N)CO)C(C)C)C(=O)N[C@@H](CCC(N)=O)C(=O)N[C@@H](CC(C)C)C(=O)N[C@@H](CCSC)C(=O)N[C@@H](Cc1cnc[nH]1)C(=O)N[C@@H](CC(N)=O)C(=O)N[C@@H](CC(C)C)C(=O)NCC(=O)N[C@@H](CCCCN)C(=O)N[C@@H](Cc1cnc[nH]1)C(=O)N[C@@H](CC(C)C)C(=O)N[C@@H](CC(N)=O)C(=O)N[C@@H](CO)C(=O)N[C@@H](CCSC)C(=O)N[C@@H](CCC(=O)O)C(=O)N[C@@H](CCCN=C(N)N)C(=O)N[C@H](C(=O)N[C@@H](CCC(=O)O)C(=O)N[C@@H](Cc1c[nH]c2ccccc12)C(=O)N[C@@H](CC(C)C)C(=O)N[C@@H](CCCN=C(N)N)C(=O)N[C@@H](CCCCN)C(=O)N[C@@H](CCCCN)C(=O)N[C@@H](CC(C)C)C(=O)N[C@@H](CCC(N)=O)C(=O)N[C@@H](CC(=O)O)C(=O)N[C@H](C(=O)N[C@@H](Cc1cnc[nH]1)C(=O)N[C@@H](CC(N)=O)C(=O)N[C@@H](Cc1ccccc1)C(=O)O)C(C)C)C(C)C", "note": "[teriparatide]", "values": [{"measurement": "Eff Dose", "setting": "[2]", "value": 0.02, "unit": "mg"}, {"measurement": "Bio Avail (Approved Dosing Info)", "setting": "[1]; SC administration", "value": 95, "unit": "%"}]}
{"compound": "Novolin® R: regular human insulin (NOVOLIN® R)", "values": [{"measurement": "mean dextrose infusion rate, IJ vs SC", "setting": "blood glucose; first 70 minutes after administration", "value": "higher in the IJ administration group"}, {"measurement": "mean dextrose infusion rate, IJ vs SC", "setting": "blood glucose; from 75 minutes to 420 minutes post-administration", "value": "higher in the SC administration group"}, {"measurement": "Cmax of blood insulin, Average", "setting": "[3]; [5]", "value": 77.40, "unit": "uIU/mL"}, {"measurement": "Tmax of blood insulin, Average", "setting": "[3]; [5]", "value": 0.9272, "unit": "h"}, {"measurement": "Cmax of blood insulin", "setting": "[3]; [5]", "value": "40.93 uIU/mL and 96.77 uIU/mL and 5.03 uIU/mL and 7.96 uIU/mL and 48.77 uIU/mL and 85.38 uIU/mL and 207.96 uIU/mL and 126.39 uIU/mL"}, {"measurement": "Tmax of blood insulin", "setting": "[3]; [5]", "value": "20 min and 50 min and 90 min (2×) and 40 min (3×)"}, {"measurement": "AUC of blood insulin, SC vs IJ", "setting": "[3]; [6]", "value": "higher than that of the IJ administration group"}, {"measurement": "maximum plasma concentration Cmax, SC vs IJ", "setting": "[3]; [6]", "value": "higher than that of the IJ administration group"}, {"measurement": "Cmax of blood insulin, Average", "setting": "[3]; SC administration", "value": 202.94, "unit": "uIU/mL"}, {"measurement": "Tmax of blood insulin, Average", "setting": "[3]; SC administration", "value": 1.452, "unit": "h"}, {"measurement": "Cmax of blood insulin", "setting": "[3]; SC administration", "value": "451.00 uIU/mL and 60.74 uIU/mL and 354.00 uIU/mL and 356.60 uIU/mL and 65.71 uIU/mL and 59.18 uIU/mL and 73.34 uIU/mL"}, {"measurement": "Tmax of blood insulin", "setting": "[3]; SC administration", "value": "50 min (2×) and 180 min and 105 min and 30 min and 120 min"}, {"measurement": "time to maximum plasma concentration (Tmax)", "setting": "[3]; jejunum administration group (jet delivery device)", "value": 0.9272, "unit": "h"}]}
{"compound": "alirocumab", "values": [{"measurement": "Eff Dose", "setting": "[2]", "value": 63.8, "unit": "mg"}, {"measurement": "Bio Avail (Approved Dosing Info)", "setting": "[1]; in vivo, sc", "value": 85, "unit": "%"}]}
{"compound": "certolizumab pegol", "values": [{"measurement": "Eff Dose", "setting": "[2]", "value": 160, "unit": "mg"}, {"measurement": "Bio Avail (Approved Dosing Info)", "setting": "[1]; in vivo, sc", "value": 80, "unit": "%"}]}
{"compound": "denosumab", "values": [{"measurement": "Eff Dose", "setting": "[2]", "value": 36.6, "unit": "mg"}, {"measurement": "Bio Avail (Approved Dosing Info)", "setting": "[1]; in vivo, sc", "value": 61, "unit": "%"}]}
{"compound": "dulaglutide", "values": [{"measurement": "Eff Dose", "setting": "[2]", "value": 0.49, "unit": "mg"}, {"measurement": "Bioavailability relative to IV", "setting": "[4]", "value": "26.51 ± 6.55", "unit": "% ^a"}, {"measurement": "Bioavailability relative to SC", "setting": "[4]", "value": "49.11 ± 0.08", "unit": "% ^a"}, {"measurement": "(AUC)T0-T240 h ± SEM", "setting": "[4]; 1.2 mg", "value": "4355.86 ± 1094.57^a ng.hr/mL"}, {"measurement": "AUCID (± SEM)", "setting": "[4]; 1.2 mg", "value": "3890.00 ± 94.73", "unit": "ng·h/mL"}, {"measurement": "Tmax", "setting": "[4]; 1.2 mg", "value": 8, "unit": "h"}, {"measurement": "(AUC)T0-T240 h ± SEM", "setting": "[4]; iv, 1.2 mg", "value": "16429.33 ± 600.93", "unit": "ng·h/mL"}, {"measurement": "Tmax", "setting": "[4]; iv, 1.2 mg", "value": 1, "unit": "h"}, {"measurement": "(AUC)T0-T240 h ± SEM", "setting": "[4]; sc, 1.2 mg", "value": "8869 ± 887.33", "unit": "ng·h/mL"}, {"measurement": "Tmax", "setting": "[4]; sc, 1.2 mg", "value": 6, "unit": "h"}, {"measurement": "Bio Avail (Approved Dosing Info)", "setting": "[1]; in vivo, sc", "value": 65, "unit": "%"}]}
{"compound": "etanercept", "values": [{"measurement": "Eff Dose", "setting": "[2]", "value": 29.0, "unit": "mg"}, {"measurement": "Bio Avail (Approved Dosing Info)", "setting": "[1]; in vivo, sc", "value": 58, "unit": "%"}]}
{"compound": "glucagon", "values": [{"measurement": "Eff. Dose", "setting": "[2]", "value": 2.0, "unit": "mg"}, {"measurement": "Bioavail. (Baseline dose)", "setting": "[1]; in vivo, sc", "value": 100.0, "unit": "%"}]}
{"compound": "golimumab", "values": [{"measurement": "Eff Dose", "setting": "[2]", "value": 25.5, "unit": "mg"}, {"measurement": "Bio Avail (Approved Dosing Info)", "setting": "[1]; in vivo, sc", "value": 51, "unit": "%"}]}
{"compound": "natalizumab", "values": [{"measurement": "Eff Dose", "setting": "[2]", "value": 300, "unit": "mg"}, {"measurement": "Bio Avail (Approved Dosing Info)", "setting": "[1]; in vivo, iv", "value": 100, "unit": "%"}]}
{"compound": "secukinumab", "values": [{"measurement": "Eff Dose", "setting": "[2]", "value": 109.5, "unit": "mg"}, {"measurement": "Bio Avail (Approved Dosing Info)", "setting": "[1]; in vivo, sc", "value": 73, "unit": "%"}]}
{"compound": "somatropin", "values": [{"measurement": "Eff. Dose", "setting": "[2]", "value": 0.8, "unit": "mg"}, {"measurement": "Bioavail. (Baseline dose)", "setting": "[1]; in vivo, sc", "value": 80.5, "unit": "%"}]}
{"compound": "tocilizumab", "values": [{"measurement": "Eff Dose", "setting": "[2]", "value": 129.6, "unit": "mg"}, {"measurement": "Bio Avail (Approved Dosing Info)", "setting": "[1]; in vivo, sc", "value": 80, "unit": "%"}]}
{"compound": "ustekinumab", "values": [{"measurement": "Eff Dose", "setting": "[2]", "value": 35.1, "unit": "mg"}, {"measurement": "Bio Avail (Approved Dosing Info)", "setting": "[1]; in vivo, sc", "value": 78, "unit": "%"}]}
{"compound": "vedolizumab", "values": [{"measurement": "Eff Dose", "setting": "[2]", "value": 300, "unit": "mg"}, {"measurement": "Bio Avail (Approved Dosing Info)", "setting": "[1]; in vivo, iv", "value": 100, "unit": "%"}]}
